Measured values published in patent publication US20220380441A1 (VIR BIOTECHNOLOGY, published 2022).
Residue numbers refer to the chain shown, from its start.

T1: Recombinant human FcγRIIb, His-tagged (human, UniProt P31994 43-217)
T1 construct: not shown: C-terminal 6-His tag
T1 sequence (looked up): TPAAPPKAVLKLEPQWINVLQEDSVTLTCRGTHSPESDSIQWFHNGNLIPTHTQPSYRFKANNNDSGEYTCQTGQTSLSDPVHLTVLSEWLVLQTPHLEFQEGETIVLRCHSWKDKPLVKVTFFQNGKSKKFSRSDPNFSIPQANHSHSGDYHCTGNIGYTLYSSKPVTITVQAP

T2: Recombinant human FcγRIIa (H131), His-tagged (human, UniProt P12318 34-218)
T2 construct: also called FcγRIIa allele H131; not shown: C-terminal 6-His tag
T2 sequence (looked up): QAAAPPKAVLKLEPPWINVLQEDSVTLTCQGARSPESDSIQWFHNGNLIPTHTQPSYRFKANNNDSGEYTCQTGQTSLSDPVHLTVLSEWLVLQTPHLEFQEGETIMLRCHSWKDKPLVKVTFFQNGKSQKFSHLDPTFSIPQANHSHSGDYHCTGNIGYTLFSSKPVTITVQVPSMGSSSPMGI

T3: Recombinant human FcγRIIa (R131), His-tagged (human, UniProt P12318 34-218)
T3 construct: also called FcγRIIa allele R131
T3 sequence (looked up): T2 sequence (looked up) with H134R

B1: HBC34-V35-MLNS (antibody, human IgG1, lambda)
heavy: not shown
light: SYELTQPPSVSVSPGQTVSIPCSGDKLGNKNVAWFQHKPGQSPVLVIYEVKYRPSGIPERFSGSNSGNTATLTISGTQAMDEAAYFCQTFDSTTVVFGGGTRLTVLGQPKAAPSVTLFPPSSEELQANKATLVCLISDFYPGAVTVAWKADSSPVKAGVETTTPSKQSNNKYAASSYLSLTPEQWKSHRSYSCQVTHEGSTVEKTVAPTECS
B2: HBC34-V35-MLNS-GAALIE (antibody, human IgG1, lambda)
heavy: ELQLVESGGGWVQPGGSQRLSCAASGRIFRSFYMSWVRQAPGKGLEWVATINQDGSEKLYVDSVKGRFTISRDNAKNSLFLQMNNLRVEDTAVYYCAAWSGNSGGMDVWGQGTTVSVSSASTKGPSVFPLAPSSKSTSGGTAALGCLVKDYFPEPVTVSWNSGALTSGVHTFPAVLQSSGLYSLSSVVTVPSSSLGTQTYICNVNHKPSNTKVDKKVEPKSCDKTHTCPPCPAPELLAGPSVFLFPPKPKDTLMISRTPEVTCVVVDVSHEDPEVKFNWYVDGVEVHNAKTKPREEQYNSTYRVVSVLTVLHQDWLNGKEYKCKVSNKALPLPEEKTISKAKGQPREPQVYTLPPSRDELTKNQVSLTCLVKGFYPSDIAVEWESNGQPENNYKTTPPVLDSDGSFFLYSKLTVDKSRWQQGNVFSCSVLHEALHSHYTQKSLSLSPGK
light: B1 light

Columns and labels:
[1] = biological target: T4, Human complement component C1q (human, UniProt P02745 23-245; P02746 28-253; P02747 29-245); assay: BLI (Octet RED96), IgG captured on anti-human Fab (CH1) sensors, C1q at 3 µg/ml
T4 construct: also called human C1q; human complement protein C1q
T4 sequence (P02745 23-245 limits assumed, chain 1 of 3): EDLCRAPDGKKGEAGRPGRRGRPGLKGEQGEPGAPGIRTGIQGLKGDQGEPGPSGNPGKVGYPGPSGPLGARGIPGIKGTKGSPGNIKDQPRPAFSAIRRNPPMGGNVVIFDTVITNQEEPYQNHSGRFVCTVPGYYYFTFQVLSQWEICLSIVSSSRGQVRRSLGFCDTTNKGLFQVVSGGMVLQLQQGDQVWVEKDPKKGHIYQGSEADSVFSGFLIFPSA
T4 sequence (P02746 28-253 limits assumed, chain 2 of 3): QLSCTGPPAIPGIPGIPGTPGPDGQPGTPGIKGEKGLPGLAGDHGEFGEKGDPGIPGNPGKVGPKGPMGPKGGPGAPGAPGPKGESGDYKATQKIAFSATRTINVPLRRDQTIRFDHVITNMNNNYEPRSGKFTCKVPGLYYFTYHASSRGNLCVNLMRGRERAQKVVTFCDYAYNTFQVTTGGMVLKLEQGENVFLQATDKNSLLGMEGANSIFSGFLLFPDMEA
T4 sequence (P02747 29-245 limits assumed, chain 3 of 3): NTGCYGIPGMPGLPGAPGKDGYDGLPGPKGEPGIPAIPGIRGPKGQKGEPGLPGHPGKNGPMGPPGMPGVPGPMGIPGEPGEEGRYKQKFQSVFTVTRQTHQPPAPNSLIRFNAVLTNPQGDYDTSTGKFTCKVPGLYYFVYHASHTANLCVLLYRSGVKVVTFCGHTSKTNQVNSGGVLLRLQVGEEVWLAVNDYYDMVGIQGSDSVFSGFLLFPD
Method: (§1) IgG-loaded sensors were then exposed for 4 minutes to a solution of kinetics buffer (pH 7.1) containing 3 μg/ml of purified human C1q (left part of the plot), followed by a dissociation step in the same buffer for additional 4 minutes (right part of the plot). Association and dissociation profiles were measured in real time as change in the interference pattern using an Octet RED96 (FortéBio).
(§2) IgG-loaded sensors were then exposed for 4 minutes to a solution of kinetics buffer (pH 7.1) containing 3 μg/ml of purified human C1q (left part of the plot), followed by a dissociation step in the same buffer for 4 additional minutes (right part of the plot). Association and dissociation profiles were measured in real time as change in the interference pattern using an Octet RED96 (FortéBio).

[2] = biological target: T1, Recombinant human FcγRIIb, His-tagged; assay: BLI (Octet RED96), His-tagged FcγR on anti-penta-His sensors, mAb at 2 µg/ml cross-linked with anti-human F(ab')2
Method: (§3) His-tagged human FcγRs ((A) FcγRIIa allele H131; (B) FcγRIIa allele R131; (C) FcγRIIIa allele F158; (D) FcγRIIIa allele V158; (E) FcγRIIb) at 2 μg/ml were captured onto anti-penta-His sensors for 6 minutes. FcγRs-loaded sensors were then exposed for 5 minutes to a solution of kinetics buffer (pH 7.1) containing 2 μg/ml of each mAb (left part of the plot) in the presence 1 μg/ml of affiniPure F(ab′)₂ Fragment Goat Anti-Human IgG, F(ab′)₂ fragment specific (to cross-link human mAbs through the Fab fragment), followed by a dissociation step in the same buffer for additional 4 minutes (right part of the plot). Association and dissociation profiles were measured in real time as change in the interference pattern using an Octet RED96 (FortéBio).
(§4) Briefly, His-tagged human FcγRs (FcγRIIa allele H131, FcγRIIa allele R131, FcγRIIAa allele F158, FcγRIIIa allele V158 and FcγRIIb) at 2 μg/ml were captured onto anti-penta-His sensors for 6 minutes. FcγR-loaded sensors were then exposed for 4 minutes to a solution of kinetics buffer (pH 7.1) containing 2 μg/ml of each mAb in the presence 1 μg/ml of affiniPure F(ab′)2 Fragment Goat Anti-Human IgG, F(ab′)2 fragment-specific (to cross-link human mAbs through the Fab fragment), followed by a dissociation step in the same buffer for 4 additional minutes (right part of the plot). Association and dissociation profiles were measured in real time as change in the interference pattern using an Octet RED96 (FortéBio).

[3] = biological target: T2, Recombinant human FcγRIIa (H131), …; assay: as above
Method: as §3, §4

[4] = biological target: T5, Recombinant human FcγRIIIa (F158), His-tagged (human, UniProt P08637 17-208); assay: as above
T5 construct: also called FcγRIIIa allele F158; not shown: C-terminal 6-His tag
T5 sequence (P08637 17-208 limits assumed): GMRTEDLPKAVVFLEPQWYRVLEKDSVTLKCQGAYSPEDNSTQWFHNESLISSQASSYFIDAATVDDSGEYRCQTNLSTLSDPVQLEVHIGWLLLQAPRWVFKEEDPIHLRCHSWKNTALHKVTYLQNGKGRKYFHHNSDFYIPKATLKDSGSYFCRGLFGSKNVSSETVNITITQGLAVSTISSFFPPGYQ

[5] = biological target: T3, Recombinant human FcγRIIa (R131), …; assay: as above
Method: as §3, §4

[6] = biological target: T6, Recombinant human FcγRIIIa (V158), His-tagged (human, UniProt P08637 17-208); assay: as above
T6 construct: also called FcγRIIIa allele V158; not shown: C-terminal 6-His tag
T6 sequence (P08637 17-208 F176V limits assumed): as the sequence (P08637 17-208 limits assumed) above, with F160V counted along it

[7] = biological target: T4, Human complement component C1q; assay: BLI (Octet RED96), IgG captured on anti-human Fab (CH1) sensors
Method: as §1, §2

| Binder | binding result [1] | binding result [2] | binding result [3] | binding result [4] | binding result [5] | binding result [6] | binding result [7] |
| --- | --- | --- | --- | --- | --- | --- | --- |
| B1 | binds | binds | binds | binds | binds | binds | – |
| B2 | – | – | binds | binds | binds | binds | no binding (tested: 3 µg/ml of purified human C1q) |
